Experimental data reported in the supplement of paper PMC9112550, “Optimization of the antimicrobial peptide Bac7 by deep mutational scanning” (BMC Biology, 2022).

Each sequence was assayed on Escherichia coli TOP10 (assay: shrunken log2 fold change of peptide-encoding DNA abundance (4.5 h post-induction vs induction); higher = less antimicrobial activity (less host growth inhibition)). Settings: time post-induction: 4.5 h; library: site-saturation at positions 5, 18, 19, 20.
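Also: peptides expressed intracellularly from a pBAD plasmid library in pooled LB shake-flask culture, induced with 0.3% L-arabinose, DNA abundance read by NGS, three biological replicates, DESeq2 with apeglm shrinkage.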

RRIRERPPRLPRPRPRPLKWPRP and RRIRKRPPRLPRPRPRPQHRPRP are within 0.2 log units of each other in “shrunken log2 fold change” value: 0.159 for the first, 0.148 for the second.

First: RRIRPRPPRLPRPRPRPCSAPRP
Second: RRIRIRPPRLPRPRPRPEYKPRP
The “shrunken log2 fold change” value of the first is higher: 0.199 for the first, -0.978 for the second.

Compared with RRIRPRPPRLPRPRPRPGGSPRP, RRIRARPPRLPRPRPRPWCNPRP is lower in “shrunken log2 fold change” value: 0.166 for the first, -0.536 for the second.

RRIRYRPPRLPRPRPRPVEDPRP and RRIRHRPPRLPRPRPRPFQMPRP are within 0.2 log units of each other in “shrunken log2 fold change” value: -0.0671 for the first, -0.0675 for the second.

Going from RRIRNRPPRLPRPRPRPPITPRP to RRIRSRPPRLPRPRPRPCNMPRP, the “shrunken log2 fold change” value falls from 0.187 to -0.221.

First: RRIRPRPPRLPRPRPRPSEWPRP
Second: RRIRHRPPRLPRPRPRPISFPRP
The “shrunken log2 fold change” value of the first is higher: 0.0522 for the first, -0.281 for the second.

Going from RRIRMRPPRLPRPRPRPDYAPRP to RRIRNRPPRLPRPRPRPRARPRP, the “shrunken log2 fold change” value rises from 0.263 to 0.856.

RRIRGRPPRLPRPRPRPFMLPRP and RRIRTRPPRLPRPRPRPWRGPRP are within 0.2 log units of each other in “shrunken log2 fold change” value: -0.0447 for the first, 0.123 for the second.

RRIRFRPPRLPRPRPRPWPMPRP and RRIRVRPPRLPRPRPRPMLSPRP are within 0.2 log units of each other in “shrunken log2 fold change” value: -0.117 for the first, -0.0455 for the second.

RRIRHRPPRLPRPRPRPRLDPRP and RRIRQRPPRLPRPRPRPQPVPRP are within 0.2 log units of each other in “shrunken log2 fold change” value: -0.0149 for the first, 0.00167 for the second.

RRIRLRPPRLPRPRPRPAVTPRP and RRIRNRPPRLPRPRPRPYKCPRP are within 0.2 log units of each other in “shrunken log2 fold change” value: -0.0968 for the first, -0.13 for the second.

Going from RRIRKRPPRLPRPRPRPDCLPRP to RRIRVRPPRLPRPRPRPPGIPRP, the “shrunken log2 fold change” value rises from -0.116 to 0.154.

First: RRIRQRPPRLPRPRPRPEPDPRP
Second: RRIRMRPPRLPRPRPRPIQDPRP
The “shrunken log2 fold change” value of the first is higher: 0.271 for the first, -0.114 for the second.

First: RRIRRRPPRLPRPRPRPLYHPRP
Second: RRIRFRPPRLPRPRPRPPMNPRP
The “shrunken log2 fold change” value of the first is lower: -0.353 for the first, -0.0762 for the second.

Going from RRIRLRPPRLPRPRPRPRPSPRP to RRIRERPPRLPRPRPRPHQGPRP, the “shrunken log2 fold change” value falls from 0.435 to 0.0963.

First: RRIRPRPPRLPRPRPRPWTEPRP
Second: RRIRHRPPRLPRPRPRPGINPRP
The “shrunken log2 fold change” value of the first is higher: -0.204 for the first, -0.422 for the second.

First: RRIRFRPPRLPRPRPRPFVFPRP
Second: RRIRHRPPRLPRPRPRPMNFPRP
The “shrunken log2 fold change” value of the first is lower: -0.454 for the first, -0.0483 for the second.

RRIRMRPPRLPRPRPRPIQIPRP and RRIRMRPPRLPRPRPRPFPLPRP are within 0.2 log units of each other in “shrunken log2 fold change” value: -0.155 for the first, -0.0414 for the second.

RRIRHRPPRLPRPRPRPKNMPRP and RRIRVRPPRLPRPRPRPDHCPRP are within 0.2 log units of each other in “shrunken log2 fold change” value: -0.231 for the first, -0.146 for the second.

RRIRTRPPRLPRPRPRPFTHPRP and RRIRYRPPRLPRPRPRPCVLPRP are within 0.2 log units of each other in “shrunken log2 fold change” value: -0.174 for the first, -0.00875 for the second.

Compared with RRIRHRPPRLPRPRPRPRIFPRP, RRIRLRPPRLPRPRPRPGIKPRP is lower in “shrunken log2 fold change” value: -0.121 for the first, -0.874 for the second.

RRIRPRPPRLPRPRPRPFTIPRP and RRIRYRPPRLPRPRPRPKWVPRP are within 0.2 log units of each other in “shrunken log2 fold change” value: -0.0323 for the first, -0.0135 for the second.

RRIRMRPPRLPRPRPRPENLPRP and RRIRTRPPRLPRPRPRPHCAPRP are within 0.2 log units of each other in “shrunken log2 fold change” value: -0.00111 for the first, -0.0401 for the second.

RRIRQRPPRLPRPRPRPKEVPRP and RRIRFRPPRLPRPRPRPVATPRP are within 0.2 log units of each other in “shrunken log2 fold change” value: 0.382 for the first, 0.547 for the second.

Going from RRIRCRPPRLPRPRPRPHPVPRP to RRIRLRPPRLPRPRPRPWSAPRP, the “shrunken log2 fold change” value rises from -0.207 to 0.539.

Compared with RRIRQRPPRLPRPRPRPVWAPRP, RRIRDRPPRLPRPRPRPACDPRP is higher in “shrunken log2 fold change” value: -0.468 for the first, 0.472 for the second.

Compared with RRIRKRPPRLPRPRPRPVWPPRP, RRIRSRPPRLPRPRPRPPCLPRP is lower in “shrunken log2 fold change” value: 0.699 for the first, -0.105 for the second.

First: RRIRPRPPRLPRPRPRPGYIPRP
Second: RRIRQRPPRLPRPRPRPSVTPRP
The “shrunken log2 fold change” value of the first is lower: -0.553 for the first, -0.0462 for the second.

Going from RRIRCRPPRLPRPRPRPVDIPRP to RRIRERPPRLPRPRPRPTEMPRP, the “shrunken log2 fold change” value rises from -0.241 to 0.0983.

RRIRWRPPRLPRPRPRPNWDPRP and RRIRPRPPRLPRPRPRPIFYPRP are within 0.2 log units of each other in “shrunken log2 fold change” value: -0.0442 for the first, -0.102 for the second.

Compared with RRIRERPPRLPRPRPRPRIKPRP, RRIRWRPPRLPRPRPRPLRLPRP is higher in “shrunken log2 fold change” value: -0.598 for the first, 0.804 for the second.

RRIRKRPPRLPRPRPRPFKNPRP and RRIRWRPPRLPRPRPRPATHPRP are within 0.2 log units of each other in “shrunken log2 fold change” value: -0.0646 for the first, 0.0538 for the second.

Compared with RRIRRRPPRLPRPRPRPNMQPRP, RRIRYRPPRLPRPRPRPFITPRP is lower in “shrunken log2 fold change” value: 0.183 for the first, -0.709 for the second.

RRIRLRPPRLPRPRPRPCFEPRP and RRIRQRPPRLPRPRPRPCPTPRP are within 0.2 log units of each other in “shrunken log2 fold change” value: -0.0179 for the first, -0.13 for the second.

Going from RRIRERPPRLPRPRPRPMDHPRP to RRIRIRPPRLPRPRPRPLLKPRP, the “shrunken log2 fold change” value falls from -0.0102 to -0.428.

First: RRIRLRPPRLPRPRPRPFSTPRP
Second: RRIRERPPRLPRPRPRPTTHPRP
The “shrunken log2 fold change” value of the first is higher: 0.0382 for the first, -0.294 for the second.

Compared with RRIRPRPPRLPRPRPRPHPYPRP, RRIRLRPPRLPRPRPRPNNCPRP is higher in “shrunken log2 fold change” value: -0.576 for the first, -0.207 for the second.

RRIRPRPPRLPRPRPRPQWKPRP and RRIRKRPPRLPRPRPRPSTQPRP are within 0.2 log units of each other in “shrunken log2 fold change” value: 0.0366 for the first, 0.169 for the second.

Going from RRIRVRPPRLPRPRPRPMYIPRP to RRIRTRPPRLPRPRPRPRYVPRP, the “shrunken log2 fold change” value falls from -0.0844 to -0.426.

First: RRIRHRPPRLPRPRPRPHQFPRP
Second: RRIRYRPPRLPRPRPRPVPWPRP
The “shrunken log2 fold change” value of the first is lower: 0.0262 for the first, 0.277 for the second.

RRIRKRPPRLPRPRPRPIGNPRP and RRIRDRPPRLPRPRPRPDTAPRP are within 0.2 log units of each other in “shrunken log2 fold change” value: 0.0844 for the first, -0.0593 for the second.

Going from RRIRQRPPRLPRPRPRPWKDPRP to RRIRMRPPRLPRPRPRPELDPRP, the “shrunken log2 fold change” value rises from -0.0211 to 2.77.

First: RRIRARPPRLPRPRPRPKFFPRP
Second: RRIRNRPPRLPRPRPRPTHIPRP
The “shrunken log2 fold change” value of the first is higher: 0.305 for the first, -0.0851 for the second.

First: RRIRDRPPRLPRPRPRPHAVPRP
Second: RRIRQRPPRLPRPRPRPFYCPRP
The “shrunken log2 fold change” value of the first is higher: 0.163 for the first, -0.314 for the second.

Compared with RRIRCRPPRLPRPRPRPMLAPRP, RRIRPRPPRLPRPRPRPMDSPRP is lower in “shrunken log2 fold change” value: 0.379 for the first, -0.0149 for the second.

For RRIRKRPPRLPRPRPRPYLVPRP, the “shrunken log2 fold change” value was -0.634.
